{
  "source": "the RNAGym collection of RNA variant scans (doi:10.7554/elife.80360)",
  "parents": {"B1": {"name": "HDV Ribozyme (parent)", "chain": "GGCCGGCAUGGUCCCAGCCUCCUCGCUGGCGCCGGCUGGGCAACAUUCCGAGGGGACCGUCCCCUCGGUAAUGGCGAAUGGGACCCA"}},
  "data": [
    {"variants_of": "B1", "assay": "self-cleavage, relative activity (ratio to wild type); higher = more cleavage; co-transcriptional", "values": [
      {"variant": "GGCCGGCAUGGCCCCAGCCUCCUCCCUGGCGCCGGCUGGGCAACAUUCCGAGGGGACCGUCCCCUCGGUAAUGGCGAAUGGGACCCA", "note": "[U12C G25C]", "self-cleavage": 0.0923},
      {"variant": "GGCCGGCAUGGCCCCAGCCUCCUCACUGGCGCCGGCUGGGCAACAUUCCGAGGGGACCGUCCCCUCGGUAAUGGCGAAUGGGACCCA", "note": "[U12C G25A]", "self-cleavage": 0.17},
      {"variant": "GGCCGGCAUGGGCCCAGCCUCCUCGCUGGCGCCGGCUGGGCAACAUUCCGAGGGGACCGUCCCCUCGGUAAUGGCGAAUGGGAGCCA", "note": "[U12G C84G]", "self-cleavage": 0.256},
      {"variant": "GGCCGGCAUGGCCCCAGCCUCCUCGCUGGCGCCGGCUGGGCAACAUUCCCAGGGGACCGUCCCCUCGGUAAUGGCGAAUGGGACCCA", "note": "[U12C G50C]", "self-cleavage": 0.434},
      {"variant": "GGCCGGCAUGGGCCCAGCCUCCUCGCUGGCGCCGGCUGGGAAACAUUCCGAGGGGACCGUCCCCUCGGUAAUGGCGAAUGGGACCCA", "note": "[U12G C41A]", "self-cleavage": 1.06},
      {"variant": "GGCCGGCAUGGGCCCAGCCUCCUCGCUGGCGCCGGCUGGGGAACAUUCCGAGGGGACCGUCCCCUCGGUAAUGGCGAAUGGGACCCA", "note": "[U12G C41G]", "self-cleavage": 0.554},
      {"variant": "GGCCGGCAUGGCCCCAGCCUCCUCGCUGGCGCCGGCUGGGCAACAUUCCGAGGGGACCGUCCCCUCGAUAAUGGCGAAUGGGACCCA", "note": "[U12C G68A]", "self-cleavage": 0.231},
      {"variant": "GGCCGGCAUGGCCCCAGCCUCCUCGCUGGCGCCGGCUGGGCAACAUUCCGAGGGGACCGUCCCCUCGCUAAUGGCGAAUGGGACCCA", "note": "[U12C G68C]", "self-cleavage": 0.145},
      {"variant": "GGCCGGCAUGGGCCCAGCCUCCUCGCUGGCGCCGGCUGGGCAACAUUCCGAGGGGACCGUCCUCUCGGUAAUGGCGAAUGGGACCCA", "note": "[U12G C63U]", "self-cleavage": 0.755},
      {"variant": "GGCCGGCAUGGGCCCAGCCUCCUCGCUGGCGCCGGCUGGGCAACAUUCCGAGGGGACCGUCCACUCGGUAAUGGCGAAUGGGACCCA", "note": "[U12G C63A]", "self-cleavage": 0.712},
      {"variant": "GGCCGGCAUGGGCCCAGCCUCCUCGCUGGCGCCGGCUGGGCAACAUUCCGAGGGGACCGUCCGCUCGGUAAUGGCGAAUGGGACCCA", "note": "[U12G C63G]", "self-cleavage": 0.727},
      {"variant": "GGCCGGCAUGGCCCCAGCCUCCUCGCUGGCGCCGGCUGGGCAACAUUCCGAGGGGACCGUCCCCUGGGUAAUGGCGAAUGGGACCCA", "note": "[U12C C66G]", "self-cleavage": 0.356},
      {"variant": "GGCCGGCAUGGCCCCAGCCUCCUCGCUGGCGCCGGCUGGGCAACAUUCCGAGGGGACCGUCCCCUCAGUAAUGGCGAAUGGGACCCA", "note": "[U12C G67A]", "self-cleavage": 0.229},
      {"variant": "GGCCGGCAUGGCCCCAGCCUCCUCGCUGGCGCCGGCUGGGCAACAUUCCGAGGGGACCGUCCCCUCCGUAAUGGCGAAUGGGACCCA", "note": "[U12C G67C]", "self-cleavage": 0.256},
      {"variant": "GGCCGGCAUGGGCCCAGCCUCCUCGCUGGCGCCGGCUGGGCAACAUUCCGAGGGGACCGUCCCCUCGGUAAUGGCGAAUGGGGCCCA", "note": "[U12G A83G]", "self-cleavage": 0.89},
      {"variant": "GGCCGGCAUGGGCCCAGCCUCCUCGUUGGCGCCGGCUGGGCAACAUUCCGAGGGGACCGUCCCCUCGGUAAUGGCGAAUGGGACCCA", "note": "[U12G C26U]", "self-cleavage": 0.776},
      {"variant": "GGCCGGCAUGGGCCCAGCCUCCUCGGUGGCGCCGGCUGGGCAACAUUCCGAGGGGACCGUCCCCUCGGUAAUGGCGAAUGGGACCCA", "note": "[U12G C26G]", "self-cleavage": 1.08},
      {"variant": "GGCCGGCAUGGCCCCAGCCUCCUCGCUGGCGCCGGCUGGGCAACAUUCCGAGGGGAGCGUCCCCUCGGUAAUGGCGAAUGGGACCCA", "note": "[U12C C57G]", "self-cleavage": 0.0831},
      {"variant": "GGCCGGCAUGGCCCCAGCCUCCUCGCUGGCGCCGGCUGGGCAACAUUCCGAGGGGACCGUCCCCUCGGUAAUGGCGAAUGCGACCCA", "note": "[U12C G81C]", "self-cleavage": 0.18},
      {"variant": "GGCCGGCAUGGGCCCAGCCUCCUCGCUGGCGCCGGCUGGGCAACAUUCCGAGGGGACCGUCCCCUCGGUAAUGGCGAAUGGGACACA", "note": "[U12G C85A]", "self-cleavage": 0.712},
      {"variant": "GGCCGGCAUGGGCCCAGCCUCCUCGCUGGCGCCGGCUGGGCAACAUUCCGAGGGGACCGUCCCCUCGGUAAUGGCGAAUGGGACUCA", "note": "[U12G C85U]", "self-cleavage": 0.787},
      {"variant": "GGCCGGCAUGGGCCCAGCCUCCUCGCUGGCGCCGGCUGGGCAACAUUCCGAGGGGACCGUCCCCUCGGUGAUGGCGAAUGGGACCCA", "note": "[U12G A70G]", "self-cleavage": 1.04},
      {"variant": "GGCCGGCAUGGGCCCAGCCUCCUCGCUGGCGCCGGCUGGGCAACAUUCCGAGGGGACCGUCCCCUCGGUAAUGGCGAAUGGGACCCU", "note": "[U12G A87U]", "self-cleavage": 0.813},
      {"variant": "GGCCGGCAUGGGCCCAGCCUCCUCGCUGGCGCCGGCUGGGCAACUUUCCGAGGGGACCGUCCCCUCGGUAAUGGCGAAUGGGACCCA", "note": "[U12G A45U]", "self-cleavage": 0.684},
      {"variant": "GGCCGGCAUGGCCCCAGCCUCCUCGCUGGCGCCGGCUGGGCAACAUUCCGAGGGGACCGUCCCCUCGGUAAAGGCGAAUGGGACCCA", "note": "[U12C U72A]", "self-cleavage": 0.107},
      {"variant": "GGCCGGCAUGGCCCCAUCCUCCUCGCUGGCGCCGGCUGGGCAACAUUCCGAGGGGACCGUCCCCUCGGUAAUGGCGAAUGGGACCCA", "note": "[U12C G17U]", "self-cleavage": 0.308},
      {"variant": "GGCCGGCAUGGGCCCAGCCUCCUCGCUGGCGCUGGCUGGGCAACAUUCCGAGGGGACCGUCCCCUCGGUAAUGGCGAAUGGGACCCA", "note": "[U12G C33U]", "self-cleavage": 0.277},
      {"variant": "GGCCGGCAUGGGCCCAGCCUCCUCGCUGGCGCAGGCUGGGCAACAUUCCGAGGGGACCGUCCCCUCGGUAAUGGCGAAUGGGACCCA", "note": "[U12G C33A]", "self-cleavage": 0},
      {"variant": "GGCCGGCAUGGGCCCACCCUCCUCGCUGGCGCCGGCUGGGCAACAUUCCGAGGGGACCGUCCCCUCGGUAAUGGCGAAUGGGACCCA", "note": "[U12G G17C]", "self-cleavage": 0.192},
      {"variant": "GGCCGGCAUGGCCCCAGCCUCCUCGCUGGCGCCGGCUGGGCAACAUUCCGAGGGGACCGUCCCCUCGGUAAUGGCGAAUGGGACCAA", "note": "[U12C C86A]", "self-cleavage": 0.864},
      {"variant": "GGCCGGCAUGGCCCCAGCCUCCUCGCUGGCGCCGGCUGGGCAACAUGCCGAGGGGACCGUCCCCUCGGUAAUGGCGAAUGGGACCCA", "note": "[U12C U47G]", "self-cleavage": 0.119},
      {"variant": "GGCCGGCAUGGGCCCAGCCUCCUCGCUGGCGCCGGCUGGGCAACAUUCCGAGGGGACCGUCCCCUCGGUAUUGGCGAAUGGGACCCA", "note": "[U12G A71U]", "self-cleavage": 0.791}
    ]}
  ]
}
